From the supplement of paper PMC12764529
± gives the half width of the 95% confidence interval.

Columns and labels:
[1] = folding stability dG unfold from chymotrypsin proteolysis; higher = more stable
Procedure: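 Folding stability of de novo designed mini-proteins (<80 aa, no Cys; designed by TrROS, TrMRF, ProteinMPNN and the joint model) was measured by cDNA display proteolysis with trypsin and chymotrypsin. Each protease was used at 11 concentrations in a threefold dilution series plus a no-protease condition. K50 was inferred by Bayesian fitting of sequencing counts, and dG unfold was derived against a sequence-predicted unfolded-state K50 (Tsuboyama et al. method). Sequences shown include variable-length N-terminal GS-type padding (SAGGSAGG...) inside a display construct carrying a PA tag. Rows were kept only if the AF2 dimer inter-PAE was >15, to exclude likely homo-oligomers.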

[2] = folding stability dG unfold (combined trypsin and chymotrypsin); higher = more stable
Procedure, shortened: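 Designed mini-proteins (under 80 residues, no cysteine) in a PA-tagged cDNA display construct were digested with trypsin and chymotrypsin. Each protease was used at 11 concentrations (threefold dilutions) plus a no-protease condition, followed by sequencing. K50 was inferred by Bayesian fitting of sequencing counts, and unfolding free energy was derived against a sequence-predicted unfolded-state K50 and a shared folded-state K50, per protease or combined. Only designs with AlphaFold2 dimer inter-PAE above 15 were kept.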

| Sequence | folding stability dG unfold [1] [kcal/mol] | folding stability dG unfold [2] [kcal/mol] |
| --- | --- | --- |
| SAGGLTLSTFESDEDVKPEWDPNKPVKVKVKTLTTTEPVPNRPHTVTTTTTLRENEEGTTPFTGTDTSAGGS [r16_300_JUSTAS] | 0.612 ± 0.061 | -0.11 ± 0.12 |
| MKITVTITSLGDKYTMTAEIELPDGTVETITKEFDSPEEAKKYIEKLVKELPPGLVEIEEIKFNPPDGTADS [r1_169_JUSTAS] | 4.94 ± 0.6 | > 6 |
| SAGGSAGGSAGMYDVGFIEAPKDTAYIKFPEINYIAEIKLDPKNGGFSLDEIKLYPLNTKSAGGSAGGSAGG [r11_352_TrMRF] | 0.521 ± 0.067 | 0.107 ± 0.11 |
| SAGTTTITVPASEASEEEVQALIDEIEAANPHLKVKEVKETVVPLPTPKPVRLRTIIINAELPLPPELLSAG [r5_835_JUSTAS] | 0.447 ± 0.18 | -0.132 ± 0.47 |
| SAGGSAGGSAGGPKVTVFDDHPKKVVLVEFPDKPILAVYDPVTKEVVLLNPDTDELLPLSAGGSAGGSAGGS [r10_434_TrMRF] | -0.551 ± 0.22 | -0.889 ± 0.47 |
| SAGGSAGGSAGGEPEPIPIKVKIYNPEDGKKREVDFWIPYGNIKEVLKELMPKGYKVEIESAGGSAGGSAGG [r7_230_TrROS] | -0.281 ± 0.23 | -0.506 ± 0.33 |
| SAGGSAGGSAGGSAAEFVAAHPDVEARPVEEGPGSVLVALRPPGGPELLVRVEGAAVTLESAGGSAGGSAGG [r7_26_JUSTAS] | -0.459 ± 0.34 | < -1 |
| SAGGSAEKKINSPEEIKRFAKELEKKGIKILSIDAVKFPSGPVVEYKMPVLHPENGKLSTLYIKSGSAGGSA [r15_123_TrMRF] | -0.352 ± 0.51 | < -1 |
| SAGGGTVVDPGPRVVTITVRPPDGKPRTITLPLPDATPEEIRARLEAVAAALPEAGATVDVLDIRPLPSAGG [r13_29_JUSTAS] | 0.941 ± 0.024 | 0.397 ± 0.064 |
| SAGGSAGGSAGGSMSTLSLTIPVGGEPVSVTVQQLYDPTKNTTTTLLPPEAAAVIARAAGSAGGSAGGSAGG [r11_91_JUSTAS] | -0.449 ± 0.19 | < -1 |
| SKKRILIVTDEKDLSPEEAAKLLEELGIEEVKVVKSAEELKNLPPEVDEVIVVTPPPPVKVEFSPEELEKSA [r9_750_TrROS_Hall] | -0.309 ± 0.069 | -0.626 ± 0.43 |
| SAGTKTIMGRPDDLPEAIEEALDKGPDLKKVKIYWGGREREIPLGDKIKITEPMPNPNGPPFMMIEIEDSAG [r5_130_TrROS] | -0.486 ± 0.38 | < -1 |
| SAGGSAGGSAGGTKELAEALRDAGYEVEYDKATNKIEVRPKPKPKPVVKTVTFVPKEDLSAGGSAGGSAGGS [r10_1173_TrROS_Hall] | -0.433 ± 0.11 | -0.51 ± 0.36 |
| SAGGSAGGSAGSMVTPVTLERYVYIEPTPDGVERKRVVPVKVKETVTVDAAGNVTTTTEVLLSAGGSAGGSA [r18_284_JUSTAS] | -0.871 ± 0.31 | < -1 |
| SAGGMKKIKVPDGSEIGSVNPKGGIDYVKVKLPGSGVLVEKAVPKGGKLVIPKNIPVELVEIKDYPLSAGGS [r16_123_TrMRF] | -0.0202 ± 0.12 | -0.366 ± 0.2 |
| SAGGSAGGSPWQVTHETVTLPEYDPSSDKPIREVTVTVTTETDPTTGATTVSLNLPSDFLRELRSAGGSAGG [r6_206_JUSTAS] | 0.291 ± 0.14 | -0.123 ± 0.22 |
| SAGGPEAKIEIYKLPDGYYFISVETPDNGKPMSIPIPPGEEKKIKIEPGAPIRDISIYPVKPGDPEAFSAGG [r13_122_TrROS] | 0.202 ± 0.33 | -0.158 ± 0.3 |
| SAGGSAGGSAGGSGGVTVSQYEGGKATRTVTSFDPVNNSTSTTTTTTFTIPPDEPVTVSSAGGSAGGSAGGS [r10_1153_JUSTAS] | 0.236 ± 0.2 | -0.371 ± 0.29 |
| SAGGSAGGSAGSSSSAVRESFQKSPTNVVTRTVTTYDANPSVLSTSSTTVPLSSVPPELLSAGGSAGGSAGG [r11_493_JUSTAS] | 0.44 ± 0.13 | 0.00507 ± 0.15 |
| SAGGPPDKSVTVTVTDEKGNPITYPVTASKPVPVYLDDPEKKLEFTVPPDSDFTAPVPPGRVSVDLRSAGGS [r16_456_JUSTAS] | 0.637 ± 0.046 | 0.202 ± 0.12 |
| SAGGSAGGSAGGGPEVEVETETLPTADGRPVRLVRARVPTREYLFLVSPDGEILRRIPVSAGGSAGGSAGGS [r10_97_TrMRF] | 0.331 ± 0.16 | -0.331 ± 0.22 |
| SAGGSAGGSAGVVYPLAGRPVRIDTSATDSLVVTTEPPDGTRTTRTYPDMDLDEVLAALASAGGSAGGSAGG [r11_934_JUSTAS] | 0.639 ± 0.072 | 0.0129 ± 0.12 |
| SAGGSAKLPPGQRVRLEIEHPAHGWTHEHTFPIKSVEEFKQSLEIPMPNPNGEPMPMRVKILDVEKSAGGSA [r15_797_TrROS] | -0.363 ± 0.48 | < -1 |
